From the MegaScale stability set (Tsuboyama et al. 2023) come the findings set out here.

B1: 6NMW (parent)
chain: QGDIVVALYPYDGIHPDDLSFKKGEKMKVLEEHGEWWKAKSLLTKKEGFIPSNYVAKLN
B2: HHH_rd2_0155 (parent)
chain: PPDDERKKAEKAARSGNEEKAREILERLGYSEDEARELAKRLR

Variants of B1 are the subject of one data set. Description: folding stability dG (cDNA display proteolysis); higher = more stable. The conditions noted are these: PBS, room temperature.
L58I: the “folding stability dG” value was found to be 16.3 kJ/mol.

As for L58P, the “folding stability dG” value is 9.94 kJ/mol.

For L58W, the “folding stability dG” value came out at 15.6 kJ/mol.

For the variant L58R, the “folding stability dG” value came to 7.22 kJ/mol.

As to L58K, the “folding stability dG” value came to 6.88 kJ/mol.

L58H: the “folding stability dG” value came to 10.2 kJ/mol.

L58G: the “folding stability dG” value worked out at 7.71 kJ/mol.

As to L58S, the “folding stability dG” value is 10.7 kJ/mol.

With L58E, the “folding stability dG” value was found to be 11.6 kJ/mol.

With L58C, the “folding stability dG” value turned out to be 16.2 kJ/mol.

Take L58M: the “folding stability dG” value was 14.4 kJ/mol.

For L58T, the “folding stability dG” value stood at 12 kJ/mol.

Take L58Q: the “folding stability dG” value was 9.97 kJ/mol.

As for L58Y, the “folding stability dG” value turned out to be 14.7 kJ/mol.

For the variant L58V, the “folding stability dG” value turned out to be 16.3 kJ/mol.

Take L58D: the “folding stability dG” value turned out to be 11.6 kJ/mol.

L58N: the “folding stability dG” value is 7.79 kJ/mol.

With L58F, the “folding stability dG” value turned out to be 13.6 kJ/mol.

For L58A, the “folding stability dG” value came out at 11 kJ/mol.

Regarding N59A, the “folding stability dG” value was 15.9 kJ/mol.

For the variant N59C, the “folding stability dG” value was found to be 19.4 kJ/mol.

As to N59L, the “folding stability dG” value turned out to be 15.2 kJ/mol.

With N59I, the “folding stability dG” value was found to be 16.8 kJ/mol.

For N59H, the “folding stability dG” value is 16.6 kJ/mol.

In the case of N59K, the “folding stability dG” value was 14.8 kJ/mol.

As for N59Y, the “folding stability dG” value is 14.9 kJ/mol.

On to N59P, for which the “folding stability dG” value amounted to 16.3 kJ/mol.

In the case of N59Q, the “folding stability dG” value is 14.9 kJ/mol.

As for N59V, the “folding stability dG” value turned out to be 16.5 kJ/mol.

Turning to N59R, the “folding stability dG” value worked out at 13.5 kJ/mol.

N59F: the “folding stability dG” value amounted to 14.6 kJ/mol.

As for N59T, the “folding stability dG” value worked out at 15 kJ/mol.

Take N59D: the “folding stability dG” value stood at 16 kJ/mol.

As to N59E, the “folding stability dG” value was 16.2 kJ/mol.

With N59M, the “folding stability dG” value turned out to be 15.2 kJ/mol.

As to N59W, the “folding stability dG” value amounted to 12.9 kJ/mol.

As for N59S, the “folding stability dG” value amounted to 17 kJ/mol.

As to N59G, the “folding stability dG” value came out at 16.9 kJ/mol.

For the variant A56R, the “folding stability dG” value was 17.5 kJ/mol.

With A56Q, the “folding stability dG” value worked out at 16.1 kJ/mol.

Turning to A56K, the “folding stability dG” value was 16.9 kJ/mol.

Turning to A56G, the “folding stability dG” value was found to be 10.5 kJ/mol.

For the variant A56M, the “folding stability dG” value was found to be 18.2 kJ/mol.

For the variant A56T, the “folding stability dG” value came out at 15.9 kJ/mol.

Regarding A56V, the “folding stability dG” value was 19.1 kJ/mol.

Regarding A56F, the “folding stability dG” value stood at 14.4 kJ/mol.

With A56S, the “folding stability dG” value is 13.8 kJ/mol.

A56I: the “folding stability dG” value was 18.4 kJ/mol.

A56N: the “folding stability dG” value was 9.37 kJ/mol.

Turning to A56Y, the “folding stability dG” value was determined as 15.9 kJ/mol.

Regarding A56P, the “folding stability dG” value was found to be 0.347 kJ/mol.

Consider A56L, for which the “folding stability dG” value amounted to 15.1 kJ/mol.

On to A56H, for which the “folding stability dG” value turned out to be 12.9 kJ/mol.

Turning to A56W, the “folding stability dG” value stood at 12.2 kJ/mol.

On to K57H, for which the “folding stability dG” value came to 13.6 kJ/mol.

For K57P, the “folding stability dG” value was found to be 15.2 kJ/mol.

As to K57I, the “folding stability dG” value stood at 13.5 kJ/mol.

For the variant K57D, the “folding stability dG” value was 7.78 kJ/mol.

In the case of K57V, the “folding stability dG” value was 14.2 kJ/mol.

K57W: the “folding stability dG” value worked out at 16.2 kJ/mol.

On to K57L, for which the “folding stability dG” value worked out at 15.1 kJ/mol.

For K57R, the “folding stability dG” value amounted to 18.3 kJ/mol.

On to K57Y, for which the “folding stability dG” value stood at 17.7 kJ/mol.

On to K57M, for which the “folding stability dG” value is 11.9 kJ/mol.

On to K57A, for which the “folding stability dG” value amounted to 12.6 kJ/mol.

For K57C, the “folding stability dG” value is 12.5 kJ/mol.

Regarding K57G, the “folding stability dG” value came to 9.5 kJ/mol.

As to K57S, the “folding stability dG” value is 12.3 kJ/mol.

K57E: the “folding stability dG” value came out at 8.46 kJ/mol.

On to K57F, for which the “folding stability dG” value turned out to be 16.6 kJ/mol.

Take K57T: the “folding stability dG” value came to 11.9 kJ/mol.

Turning to K57N, the “folding stability dG” value was 10.2 kJ/mol.

As to K57Q, the “folding stability dG” value was found to be 11.2 kJ/mol.

Variants of B2 are the subject of the next data set. The description is as above. The conditions noted are these: PBS, room temperature.
VPDDERKKAEKAARSGNEEKAREILERLGYSEDEARELAKRLR [P1V]: the “folding stability dG” value was 8.9 kJ/mol.

As for FPDDERKKAEKAARSGNEEKAREILERLGYSEDEARELAKRLR [P1F], the “folding stability dG” value was 9.3 kJ/mol.

In the case of KPDDERKKAEKAARSGNEEKAREILERLGYSEDEARELAKRLR [P1K], the “folding stability dG” value was 8.97 kJ/mol.

For QPDDERKKAEKAARSGNEEKAREILERLGYSEDEARELAKRLR [P1Q], the “folding stability dG” value is 9.2 kJ/mol.

On to EPDDERKKAEKAARSGNEEKAREILERLGYSEDEARELAKRLR [P1E], for which the “folding stability dG” value was 9.2 kJ/mol.

Turning to DPDDERKKAEKAARSGNEEKAREILERLGYSEDEARELAKRLR [P1D], the “folding stability dG” value worked out at 9.87 kJ/mol.

Turning to APDDERKKAEKAARSGNEEKAREILERLGYSEDEARELAKRLR [P1A], the “folding stability dG” value worked out at 9.27 kJ/mol.

As for RPDDERKKAEKAARSGNEEKAREILERLGYSEDEARELAKRLR [P1R], the “folding stability dG” value turned out to be 9.23 kJ/mol.

Take SPDDERKKAEKAARSGNEEKAREILERLGYSEDEARELAKRLR [P1S]: the “folding stability dG” value was found to be 9.84 kJ/mol.
